How the values were obtained:
[1] = biological target: green fluorescent protein (GFP), recombinant (Aequorea victoria) [GFP: P42212]; assay: SPR, GFP immobilised; reference LaG-16 or LaG-2 alone
[2] = biological target: GFP-tagged Nup84 (budding yeast) (budding yeast) (UniProt P52891); assay: time course of yeast Nup84-GFP isolation on magnetic beads
[3] = biological target: green fluorescent protein (GFP), recombinant (Aequorea victoria) [GFP: P42212]; assay: SPR, GFP immobilised

fold lower Kd than either LaG alone [1]: 20 fold
percent of maximum yield after 5 minutes [2]: 80%
percent of maximum yield after 10 minutes [2]: 90%
Kd [3]: 0.036 nM
Substance: LaG16-LaG2 fusion with a flexible glycine-rich linker
